The supplement of paper PMC10724198
± gives the standard deviation of the averaged measurements.

Test system: Saccharomyces cerevisiae
Experiment: protein stability index of tFT-peptide fusion (C-terminal peptide) (PSI (0-1 scale)); higher = more stable (slower turnover)
Conditions: genetic background: wild type; temperature: 30 C
Procedure: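 Multiplexed protein stability (MPS) profiling in S. cerevisiae. Random 12-aa peptides (tFT-X12 library) are fused to the C-terminus of a sfGFP-mCherry tandem fluorescent timer, after mCherry and a GGGS linker. Cells are FACS-sorted into 8 mCherry/sfGFP bins and deep-sequenced. The protein stability index (PSI) is the read-weighted bin average, scaled from 0 (unstable) to 1 (stable). Only peptides with >10 reads are reported; cells were grown at 30 °C in SC-His with glucose.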
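Also: PSI is a weighted mean of sequencing reads over stability bins, variants kept only with over 10 reads, mCherry proximal and sfGFP distal, peptide attached via GGGS linker.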

| Sequence | protein stability index |
| --- | --- |
| CTIAPSIFFTRG | 0.704 ± 0.11 |
| CTVWGLWRGWTA | 0.7389 ± 0.0041 |
| CVAGSGRGGVKR | 0.6327 ± 0.0037 |
| CVCHWTALCIQI | 0.512 ± 0.013 |
| CVFSEMIVCDGG | 0.566 ± 0.049 |
| CVGQYVHWDLLV | 0.549 ± 0.011 |
| CVIGDKRRSKAI | 0.6808 ± 0.0021 |
| CVLPVSVIWVLR | 0.575 ± 0.018 |
| CVLVGGVPAGGG | 0.6174 ± 0.0028 |
| CVLWLISLLPDR | 0.563 ± 0.068 |
| CVRPAPGSGGWQ | 0.6429 ± 0.0041 |
| CVTLPPHPLPPP | 0.6623 ± 0.0058 |
| CWGGRSYVYNIG | 0.662 ± 0.016 |
| CWNVLVPFDEVI | 0.6 ± 0.08 |
| CWSRLADSFVSL | 0.683 ± 0.05 |
| CYGFCVRTYPAI | 0.684 ± 0.037 |
| CYLSVGVASWNS | 0.6816 ± 0.0026 |
| DAACDSGLSAEW | 0.722 ± 0.015 |
| DAAFRMTRLVVR | 0.6172 ± 0.0015 |
| DAGRETGRLVGG | 0.708 ± 0.032 |
| DAIHSPALLASP | 0.715 ± 0.092 |
| DALVQVFANVGA | 0.6629 ± 0.0059 |
| DALWLAFFDVID | 0.711 ± 0.068 |
| DARLSPVRNRLF | 0.652 ± 0.17 |
| DASVIPAKPRRS | 0.69 ± 0.041 |
| DAVVPSSTVPLL | 0.7001 ± 0.0022 |

| Sequence | protein stability index |
| --- | --- |
| DCDVLCGSGRRR | 0.703 ± 0.026 |
| DCLFQSKLNTYD | 0.676 ± 0.041 |
| DCNQLRGRAFRL | 0.719 ± 0.034 |
| DCPAVLLYAVNW | 0.501 ± 0.054 |
| DCVACFFFYSGG | 0.599 ± 0.0099 |
| DCWAGGGLCGWG | 0.719 ± 0.05 |
| DDCFCGRFWVVV | 0.6787 ± 0.0032 |
| DEEVGWGRGGGW | 0.673 ± 0.011 |
| DENLYGGFRTSM | 0.725 ± 0.0078 |
| DFCPCPRWFLRR | 0.715 ± 0.086 |
| DFIAGGSRPFLV | 0.715 ± 0.015 |
| DFIEINFDLFPP | 0.6382 ± 0.00098 |
| DFLRCPPLFEFS | 0.721 ± 0.087 |
| DFSLQILALCYF | 0.558 ± 0.018 |
| DFVRVVGDLRWE | 0.587 ± 0.041 |
| DGAVCSAFASIF | 0.701 ± 0.0089 |
| DGGGGGRAPRVR | 0.726 ± 0.1 |
| DGGIVTVSLGWC | 0.662 ± 0.064 |
| DGKNQGKAEGTK | 0.693 ± 0.041 |
| DGSPLGSIQQAP | 0.673 ± 0.013 |
| DGTRVSFLGHKG | 0.665 ± 0.053 |
| DGYYRIVRPEAI | 0.626 ± 0.018 |
| DHPFFCWDGVVK | 0.687 ± 0.069 |
| DHSWPSTDRVLL | 0.676 ± 0.0096 |
| DHVSTVEQKLFF | 0.701 ± 0.031 |
| DIISSKENWVEI | 0.68 ± 0.059 |

| Sequence | protein stability index |
| --- | --- |
| DINHTSKKKIYI | 0.663 ± 0.015 |
| DINNDQKCTLMK | 0.71 ± 0.013 |
| DIRRWQWWFMVR | 0.613 ± 0.082 |
| DKCRWWRHGVWR | 0.687 ± 0.019 |
| DKDSTSRYSKPW | 0.725 ± 0.022 |
| DKFEEENIKKKK | 0.74 ± 0.026 |
| DKGIHKREKFFT | 0.734 ± 0.0054 |
| DKNVREGDRETR | 0.685 ± 0.017 |
| DKRHQSALSFFI | 0.736 ± 0.0089 |
| DKYFRYKEERTY | 0.766 ± 0.16 |
| DLERRKGTGVWR | 0.6366 ± 0.0051 |
| DLGARWLFLLQT | 0.622 ± 0.012 |
| DLLWASLCLRSY | 0.679 ± 0.021 |
| DLPATSAETAPK | 0.699 ± 0.058 |
| DLPRCTLSVEDT | 0.703 ± 0.0078 |
| DLPVIGHRLPLF | 0.684 ± 0.012 |
| DLPVPRPGTLQV | 0.655 ± 0.045 |
| DLRFLQFGFIPW | 0.752 ± 0.043 |
| DLSMIPEWICIV | 0.547 ± 0.054 |
| DLSSFGRLGCQG | 0.871 ± 0.037 |
| DMHTPATDSPLP | 0.783 ± 0.016 |
| DMVSLGLAILIT | 0.492 ± 0.021 |
| DMWSMFSFLYYV | 0.507 ± 0.012 |
| DNKEIEQTIRNK | 0.6304 ± 0.0041 |
| DPGKWMRCHICE | 0.752 ± 0.035 |
| DPPPPSPPASMP | 0.663 ± 0.036 |

| Sequence | protein stability index |
| --- | --- |
| DPQQRSNPKPII | 0.661 ± 0.032 |
| DPRRNGAPLRSI | 0.676 ± 0.039 |
| DPTPLALSPDHP | 0.63 ± 0.057 |
| DPYYGFRMRIPF | 0.691 ± 0.026 |
| DQVSGYNVWFGT | 0.698 ± 0.028 |
| DRAPPPPRSSPL | 0.733 ± 0.076 |
| DRLGADCPLLSG | 0.734 ± 0.028 |
| DRLTLEKKGRGM | 0.684 ± 0.016 |
| DRPNIGIKPKRA | 0.613 ± 0.086 |
| DRPYPTTFRSSR | 0.66 ± 0.017 |
| DRRTLSLDLCGS | 0.644 ± 0.045 |
| DRSMRPISKRWE | 0.668 ± 0.037 |
| DRSTGVNKSFPS | 0.7 ± 0.074 |
| DRSTIKIAIHRQ | 0.656 ± 0.056 |
| DRVHVSNGYLEF | 0.684 ± 0.1 |
| DRVRGLCIPNGP | 0.681 ± 0.043 |
| DSIVWVGVTYFL | 0.553 ± 0.012 |
| DSLSVSLSLVRG | 0.696 ± 0.028 |
| DSPLSHPPSPAP | 0.6235 ± 0.0019 |
| DSPPHPPPASAP | 0.714 ± 0.017 |
| DSRRDYLHLVFT | 0.646 ± 0.023 |
| DSSEGRVRIRIR | 0.714 ± 0.063 |
| DSSFPKSVSKQA | 0.679 ± 0.024 |
| DSSLDWGREARA | 0.649 ± 0.075 |
| DSTWGLGLFSVP | 0.64 ± 0.033 |
| DSVRRMAEGKRE | 0.672 ± 0.029 |

| Sequence | protein stability index |
| --- | --- |
| DSVVGFCGYWGG | 0.706 ± 0.088 |
| DSWGPGVSSRRW | 0.732 ± 0.044 |
| DTRNKHTKSKCQ | 0.741 ± 0.051 |
| DTSPSPPPLSVL | 0.693 ± 0.017 |
| DTTSSPPLPLLV | 0.623 ± 0.035 |
| DTVYSRAIAANA | 0.545 ± 0.012 |
| DVAWHNYRISGK | 0.673 ± 0.015 |
| DVDYGEIDYQIK | 0.708 ± 0.011 |
| DVGSRGPPHTDG | 0.687 ± 0.074 |
| DVILVSLPPPSV | 0.676 ± 0.049 |
| DVLASSSVWFLI | 0.624 ± 0.0057 |
| DVLGCFDYLLFR | 0.623 ± 0.03 |
| DVLRLRSVFFCG | 0.631 ± 0.047 |
| DVPKSGLEVWRR | 0.627 ± 0.067 |
| DVQISSGRGVCS | 0.672 ± 0.054 |
| DVRMGCVGVSNI | 0.71 ± 0.0088 |
| DVRNDSSLIIQI | 0.688 ± 0.053 |
| DVSIFTNELGFY | 0.763 ± 0.01 |
| DWFGGSVRVDEN | 0.693 ± 0.055 |
| DWGAGAASRADR | 0.708 ± 0.015 |
| DWHLLVRRPFSR | 0.714 ± 0.042 |
| DWWFGQVYLSKE | 0.705 ± 0.011 |
| DWWLPLFDWAKL | 0.872 ± 0.025 |
| DYLVRGPPRASG | 0.629 ± 0.021 |
| DYNQWSAHHYGV | 0.693 ± 0.029 |
| DYRLWFRGLPSL | 0.697 ± 0.035 |

| Sequence | protein stability index |
| --- | --- |
| EAAVTESVTGKR | 0.679 ± 0.0088 |
| EAIMNSLLFAVD | 0.664 ± 0.0088 |
| EAKRSRCESAEI | 0.672 ± 0.01 |
| EARLGGESSAWG | 0.655 ± 0.053 |
| EAVNLDSWAAGQ | 0.828 ± 0.058 |
| EAYRVTYPYMYP | 0.726 ± 0.0086 |
| ECFVCGGGILGG | 0.637 ± 0.09 |
| ECGLGGGGGLGV | 0.689 ± 0.077 |
| ECSPRQVPSLAE | 0.694 ± 0.028 |
| ECVPEVACCPWR | 0.729 ± 0.03 |
| EDCTKNPERDNS | 0.68 ± 0.048 |
| EDMRGATGRGAG | 0.669 ± 0.028 |
| EDTMGKTASHTR | 0.699 ± 0.019 |
| EEEGRRREEETS | 0.67 ± 0.041 |
| EEGARAAGGEPQ | 0.68 ± 0.036 |
| EEREGPVGKGGG | 0.708 ± 0.044 |
| EESNEERDQEKT | 0.63 ± 0.0065 |
| EEVKKRTLKVID | 0.738 ± 0.021 |
| EEWRRRSTKERR | 0.641 ± 0.013 |
| EFALVFVRARRA | 0.586 ± 0.047 |
| EFANKGIKINTA | 0.625 ± 0.019 |
| EFLGTVRSVWRK | 0.669 ± 0.086 |
| EFLVSVRPFASP | 0.696 ± 0.032 |
| EFPSFHDQGAYM | 0.738 ± 0.062 |
| EFSWGGLAGSFG | 0.68 ± 0.024 |
